Columns and labels:
[1] = biological target: T1, hEpCAM (R&D Systems #9277-EP) (human, UniProt P16422 24-265); assay: Octet BLI, Assay 2: bsAb on FAB2G sensor, monomeric EpCAM-his in solution, 1:1 fit
T1 construct: Bought protein, monomeric; also called human EpCAM; monomeric antigen EpCAM-his; not shown: His tag
T1 sequence (looked up): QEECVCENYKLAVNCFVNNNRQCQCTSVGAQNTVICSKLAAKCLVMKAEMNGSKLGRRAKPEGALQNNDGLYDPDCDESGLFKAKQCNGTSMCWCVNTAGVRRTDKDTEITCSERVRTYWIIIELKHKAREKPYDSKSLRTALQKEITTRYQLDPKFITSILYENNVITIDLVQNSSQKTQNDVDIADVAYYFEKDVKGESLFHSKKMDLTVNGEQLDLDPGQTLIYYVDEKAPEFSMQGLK
Method: (§1) Kinetic measurements were performed using the Octet RED96 platform (ForteBlo).
(§2) BsAb at 1.0 or 1.5 ug/ml where coupled to anti-human Fab-CH1 2nd generation (FAB2G) biosensors (Part no #18-5125 (tray)). Antigens were serially diluted % in 1× Kinetic buffer (ForteBio) to 100 nM, 50 nM, 25 nM, 12.5 nM, 6.25 nM, 3.125 nM, 1.56 nM or 0 nM. The association was followed for 300 seconds and the dissociation in 1× Kinetic buffer for 300 seconds. Sensor tips were regenerated using 10 mM glycine, pH 1.5. Data generated were referenced by subtracting a parallel buffer blank, the baseline was aligned with the y-axis, inter-step correlation by alignment against dissociation was performed and the data were smoothed by a Savitzky-Golay filter in the data analysis software (v.9.0.0.14). The processed data were fitted using a 1:1 Langmuir binding model with X2 as a measurement of fitting accuracy.

[2] = biological target: T2, EpCAM-Fc (Sino hEpCAM_Fc #10694-H02H) (human, UniProt P16422 24-265); assay: Octet BLI, Assay 1: bsAb on FAB2G sensor, dimeric EpCAM-Fc in solution, 1:1 fit
T2 construct: Bought protein, called dimeric; also called dimeric antigen EpCAM-Fc; not shown: Fc part
T2 sequence (looked up): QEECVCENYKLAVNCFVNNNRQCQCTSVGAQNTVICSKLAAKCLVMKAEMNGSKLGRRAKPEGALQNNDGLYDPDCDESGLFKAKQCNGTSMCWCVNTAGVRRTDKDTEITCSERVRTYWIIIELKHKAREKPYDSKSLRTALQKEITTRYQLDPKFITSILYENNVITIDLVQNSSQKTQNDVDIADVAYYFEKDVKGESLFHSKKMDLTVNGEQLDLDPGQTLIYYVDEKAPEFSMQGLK
Method: as §1, §2

[3] = biological target: T3, human EpCAM expressed on cells (human, UniProt P16422 24-314); assay: flow cytometry, biotinylated antibody titrated on EpCAM-transfected and control CHO cells, streptavidin detection
T3 construct: whole, on cells; also called EpCAM-transfected CHO cells; CHO-EpCAM
T3 sequence (looked up): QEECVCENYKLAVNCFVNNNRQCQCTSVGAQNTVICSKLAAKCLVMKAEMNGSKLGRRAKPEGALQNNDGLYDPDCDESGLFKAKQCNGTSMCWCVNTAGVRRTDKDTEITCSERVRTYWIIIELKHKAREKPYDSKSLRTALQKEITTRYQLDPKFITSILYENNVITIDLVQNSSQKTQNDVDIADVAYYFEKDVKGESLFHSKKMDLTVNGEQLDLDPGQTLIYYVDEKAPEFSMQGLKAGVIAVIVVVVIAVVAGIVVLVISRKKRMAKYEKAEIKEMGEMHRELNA
Excerpt: The human EpCAM gene was cloned into pcDNA3.1, and the vector was subsequently stably transfected into CHO cells. Control CHO cells were stably transfected with and empty pcDNA3.1 vector. […] Binding of biotinylated antibodies was detected with fluorochrome-conjugated streptavidin and analysed using flow cytometry.

[4] = biological target: T4, CD40 on human peripheral blood mononuclear cells (human, UniProt P25942 21-277); assay: flow cytometry, biotinylated antibody titrated on human PBMC (B cells, monocytes, T cells, NK cells gated), streptavidin detection
T4 construct: whole, on cells; also called CD40+ cell populations among PBMC (B cells, monocytes)
Excerpt: Binding of biotinylated antibodies was detected with fluorochrome-conjugated streptavidin and analysed using flow cytometry.

[5] = biological target: T5, biotinylated hCD40 (504-030 from Ancell) (human, UniProt P25942 21-193, biotinylated); assay: dual ELISA, bsAb captured on plate-coated hEpCAM, detected with biotinylated hCD40 and streptavidin-HRP
T5 construct: Detection reagent of the dual ELISA
Method: Plates were coated with 0.5 μg/mL hEpCAM (R&D Systems #9277-EP) in PBS over night at 4° C. After washing in PBS/0.05% Tween 20 (PBST), the plates were blocked with PBS/0.2% BSA for at least 30 minutes at room temperature before being washed again. Samples serially diluted from 50 nM in PBS/0.02% BSA were then added and allowed to bind for at least 1 hour at room temperature. […] Dual antigen-complexed bsAb were detected with HRP-labelled streptavidin. SuperSignal Pico Luminescent was used as substrate and luminescence signals were measured using Fluostar Optima.

[6] = biological target: T2, EpCAM-Fc (Sino hEpCAM_Fc #10694-H02H); assay: Octet BLI, Assay 3: EpCAM-Fc coupled to AR2G sensor, bsAb in solution, 1:1 fit
Method: as §1
Antigen was coupled to Amine reactive Second generation sensors (Dip and Read Amine reactive Second-Generation (AR2G) Biosensors (Part no #18-5092 (tray)) at antigen concentrations of 0.4, 1.5, 0.25 or 0.5 μg/mL. BsAb (serially diluted ½ in 1× Kinetic buffer (ForteBio) with start concentrations of 20, 15, 10 or 25 nM) were analysed for binding to antigen-coupled sensors. The association was followed for 300 seconds and the dissociation in 1× Kinetic buffer for 300 seconds. Sensor tips were regenerated using 10 mM glycine, pH 2.2. Data generated were referenced by subtracting a parallel buffer blank, the baseline was aligned with the y-axis, inter-step correlation by alignment against dissociation was performed and the data were smoothed by a Savitzky-Golay filter in the data analysis software (v.9.0.0.14). The processed data were fitted using a 1:1 Langmuir binding model with X2 as a measurement of fitting accuracy.

T5 sequence (P25942 21-193 limits assumed): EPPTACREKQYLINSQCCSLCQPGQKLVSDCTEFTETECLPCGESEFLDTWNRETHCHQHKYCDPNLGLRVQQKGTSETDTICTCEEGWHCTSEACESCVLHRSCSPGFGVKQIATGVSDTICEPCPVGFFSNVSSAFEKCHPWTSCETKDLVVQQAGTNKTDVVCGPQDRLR
T4 sequence (P25942 21-277): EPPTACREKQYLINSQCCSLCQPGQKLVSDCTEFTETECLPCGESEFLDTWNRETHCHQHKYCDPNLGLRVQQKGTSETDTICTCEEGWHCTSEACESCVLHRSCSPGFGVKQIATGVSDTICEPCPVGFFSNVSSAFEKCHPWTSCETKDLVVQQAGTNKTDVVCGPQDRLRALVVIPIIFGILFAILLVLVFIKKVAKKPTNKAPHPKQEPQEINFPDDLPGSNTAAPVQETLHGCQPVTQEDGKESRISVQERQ

| Binder | Kd [1] | koff [1] | kon [1] | Kd [2] | koff [2] | kon [2] | binding result [3] | binding result [4] | binding result [5] | Kd [6] | koff [6] | kon [6] |
| --- | --- | --- | --- | --- | --- | --- | --- | --- | --- | --- | --- | --- |
| 1132-005025.M (bispecific antibody, also called CD40-EpCAM bispecific antibody in the Morrison format) VH: EVQLLESGGGLVQPGGSLRLSCAASGFTFSSYAMSWVRQAPGKGLEWVSGIGSYGGGTYYADSVKGRFTISRDNSKNTLYLQMNSLRAEDTAVYYCARYVNFGMDYWGQGTLVTVSS VL: DIQMTQSPSSLSASVGDRVTITCRASQSISSYLNWYQQKPGKAPKLLIYAASSLQSGVPSRFSGSGSGTDFTLTISSLQPEDFATYYCQQYGRNPPTFGQGTKLEIK scFv: not shown | 300 nM | 0.01 s⁻¹ | 30000 M⁻¹ s⁻¹ | 4 nM | 0.001 s⁻¹ | 300000 M⁻¹ s⁻¹ |  |  |  |  |  |  |
| 1132.m2 (antibody, V domains shown, also called LALA-mutated agonistic monoclonal CD40 antibody) VH: EVQLLESGGGLVQPGGSLRLSCAASGFTFSSYAMSWVRQAPGKGLEWVSGIGSYGGGTYYADSVKGRFTISRDNSKNTLYLQMNSLRAEDTAVYYCARYVNFGMDYWGQGTLVTVSS VL: DIQMTQSPSSLSASVGDRVTITCRASQSISSYLNWYQQKPGKAPKLLIYAASSLQSGVPSRFSGSGSGTDFTLTISSLQPEDFATYYCQQYGRNPPTFGQGTKLEIK |  |  |  |  |  |  | no binding | binds |  |  |  |  |
| 1132-005038.M (bispecific antibody, also called CD40-EpCAM bispecific antibody in the Morrison format) VH: EVQLLESGGGLVQPGGSLRLSCAASGFTFSSYAMSWVRQAPGKGLEWVSGIGSYGGGTYYADSVKGRFTISRDNSKNTLYLQMNSLRAEDTAVYYCARYVNFGMDYWGQGTLVTVSS VL: DIQMTQSPSSLSASVGDRVTITCRASQSISSYLNWYQQKPGKAPKLLIYAASSLQSGVPSRFSGSGSGTDFTLTISSLQPEDFATYYCQQYGRNPPTFGQGTKLEIK scFv: not shown | 1000 nM | 0.01 s⁻¹ | 8000 M⁻¹ s⁻¹ | 6 nM | 0.002 s⁻¹ | 300000 M⁻¹ s⁻¹ |  |  |  |  |  |  |
| 1132-3174.M (bispecific antibody, V domains shown, also called CD40-EpCAM bispecific antibody in the Morrison format) VH 1: EVQLLESGGGLVQPGGSLRLSCAASGFTFSSYAMSWVRQAPGKGLEWVSGIGSYGGGTYYADSVKGRFTISRDNSKNTLYLQMNSLRAEDTAVYYCARYVNFGMDYWGQGTLVTVSS VL 1: DIQMTQSPSSLSASVGDRVTITCRASQSISSYLNWYQQKPGKAPKLLIYAASSLQSGVPSRFSGSGSGTDFTLTISSLQPEDFATYYCQQYGRNPPTFGQGTKLEIK VH 2: EVQLLEQSGAELVRPGTSVKISCKASGYAFTNYWLGWVKQRPGHGLEWIGDIFPGSGNIHYNEKFKGKATLTADKSSSTAYMQLSSLTFEDSAVYFCARLRNWDEPMDYWGQGTTVTVSS VL 2: ELVMTQSPSSLTVTAGEKVTMSCKSSQSLLNSGNQKNYLTWYQQKPGQPPKLLIYWASTRESGVPDRFTGSGSGTDFTLTISSVQAEDLAVYYCQNDYSYPLTFGAGTKLEIK | 500 nM | 0.01 s⁻¹ | 20000 M⁻¹ s⁻¹ | 0.5 nM | 8e-05 s⁻¹ | 200000 M⁻¹ s⁻¹ |  |  | binds |  |  |  |
| 1132-3188.M (bispecific antibody, V domains shown, also called CD40-EpCAM bispecific antibody in the Morrison format; 3188 = 4D5MOCB = BM1) VH 1: EVQLLESGGGLVQPGGSLRLSCAASGFTFSSYAMSWVRQAPGKGLEWVSGIGSYGGGTYYADSVKGRFTISRDNSKNTLYLQMNSLRAEDTAVYYCARYVNFGMDYWGQGTLVTVSS VL 1: DIQMTQSPSSLSASVGDRVTITCRASQSISSYLNWYQQKPGKAPKLLIYAASSLQSGVPSRFSGSGSGTDFTLTISSLQPEDFATYYCQQYGRNPPTFGQGTKLEIK VH 2: EVQLVQSGPGLVQPGGSVRISCAASGYTFTNYGMNWVKQAPGKGLEWMGWINTYTGESTYADSFKGRFTFSLDTSASAAYLQINSLRAEDTAVYYCARFAIKGDYWGQGTLLTVSS VL 2: DIQMTQSPSSLSASVGDRVTITCRSTKSLLHSNGITYLYWYQQKPGKAPKLLIYQMSNLASGVPSRFSSSGSGTDFTLTISSLQPEDFATYYCAQNLEIPRTFGQGTKVELK | 30 nM | 0.004 s⁻¹ | 100000 M⁻¹ s⁻¹ | < 0.001 nM | < 1e-07 s⁻¹ | 300000 M⁻¹ s⁻¹ |  |  |  |  |  |  |
| 1132-3174.R (bispecific antibody) chain 1: not shown chain 2: ELVMTQSPSSLTVTAGEKVTMSCKSSQSLLNSGNQKNYLTWYQRKPGQPPKLLIYWASTRESGVPDRFTGSGSGTDFTLTISSVQAEDLAVYYCQNDYSYPLTFGAGTKLEIK chain 3: DIQMTQSPSSLSASVGDRVTITCRASQSISSYLNWYQEKPGKAPKLLIYAASSLQSGVPSRFSGSGSGTDFTLTISSLQPEDFATYYCQQYGRNPPTFGQGTKLEIKRTVAAPSVFIFPPSDEQLKSGTASVVCYLNNFYPREAKVQWKVDNALQSGNSQESVTEQDSKDSTYSLWSTLTLSKADYEKHKVYACEVTHQGLSSPVTKSFNRGEC chain 4: EVQLLEQSGAELVRPGTSVKISCKASGYAFTNYWLGWVKERPGHGLEWIGDIFPGSGNIHYNEKFKGKATLTADKSSSTAYMQLSSLTFEDSAVYFCARLRNWDEPMDYWGQGTTVTVSSASTKGPSVFPLAPSSKSTSGGTAALGCLVKDYFPEPVTVSWNSGALTSGVHTFPAVLQSSGLYSLSSVVEVPSSSLGTQTYICNVNHKPSNTKVDKKVEPKSC |  |  |  |  |  |  |  |  |  | 8 nM | 0.001 s⁻¹ | 100000 M⁻¹ s⁻¹ |
